{
  "source": "patent US10538782B2",
  "about": "“Plants having increased tolerance to herbicides” (BASF SE, priority 2015, dated 2020)",
  "data": [
    {"tested_on": "Soybean cv Jake", "experiment": "Herbicide tolerance test of transgenic soybean events, roots of cuttings treated via nutrient solution with the herbicide", "assay_type": "in vivo", "conditions": "transgenic plants expressing the TriA variant, herbicide treatment; 0% no injury, 100% complete death; herbicide and species not given", "description": "Binary vectors are generated as described in EXAMPLE 9. Soybean cv Jake are transformed as previously described by Siminszky et al., Phytochem Rev. 5:445-458 (2006). After regeneration, transformants are transplanted to soil in small pots, placed in growth chambers (16 hr day/8 hr night; 25° C. day/23° C. night; 65% relative humidity; 130-150 microE m-2 s-1) and subsequently tested for the presence of the T-DNA via Taqman analysis. After a few weeks, healthy, transgenic positive, single copy events are transplanted to larger pots and allowed to grow in the growth chamber. An optimal shoot for cutting is about 3-4 inches tall, with at least two nodes present. Each cutting is taken from the original transformant (mother plant) and dipped into rooting hormone powder (indole-3-butyric acid, IBA). The cutting is then placed in oasis wedges inside a bio-dome. The mother plant is taken to maturity in the greenhouse and harvested for seed. Wild type cuttings are also taken simultaneously to serve as negative controls. The cuttings are kept in the bio-dome for 5-7 days. 7-10 days after transfer to oasis wedges, the roots are treated via nutrient solution with the herbicide. Typical phytotox symptoms, like club shaped root, are evaluated 3-4 days after treatment. Less or no injury of transgenic plants compared to wildtype plants are interpreted as herbicide tolerance.", "units": {"Root injury [%]": "%"}, "values": [
      {"molecule": "L88AL92A: mutated TriA (SEQ ID NO: 2) in which position 88 is Ala and position 92 is Ala (protein, Pseudomonas) MQTLSIQHGTLVTMDQYRRVLGDSWVHVQDGRIVALGVHAESVPPPADRVIDARGKVVLPGFINAHTHVNQILLRGGPSHGRQLYDWAFNVAYPGQKAMRPEDVAVAVRLYCAEAVRSGITTINDNADSAIYPGNIEAAMAVYGEVGVRVVYARMFFDRMDGRIQGYVDALKARSPQVELCSIMEETAVAKDRITALSDQYHGTAGGRISVWPAPAITPAVTVEGMRWAQAFARDRAVMWTLHMAESDHDERLHWMSPAEYMECYGLLDERLQVAHCVYFDRKDVRLLHRHNVKVASQVVSNAYLGSGVAPVPEMVERGMAVGIGTDDGNCNDSVNMIGDMKFMAHIHRAVHRDADVLTPEKILEMATIDGARSLGMDHEIGSIETGKRADLILLDLRHPQTTPHHHLAATIVFQAYGNEVDTVLIDGNVVMENRRLSFLPPERELAFLEEAQSRATAILQRANMVANPAWRSL", "Root injury [%]": 0},
      {"molecule": "N70N: TriA (melamine deaminase, SEQ ID NO: 2) with position 70 unchanged, apparently the wildtype reference (protein, Pseudomonas) MQTLSIQHGTLVTMDQYRRVLGDSWVHVQDGRIVALGVHAESVPPPADRVIDARGKVVLPGFINAHTHVNQILLRGGPSHGRQLYDWLFNVLYPGQKAMRPEDVAVAVRLYCAEAVRSGITTINDNADSAIYPGNIEAAMAVYGEVGVRVVYARMFFDRMDGRIQGYVDALKARSPQVELCSIMEETAVAKDRITALSDQYHGTAGGRISVWPAPAITPAVTVEGMRWAQAFARDRAVMWTLHMAESDHDERLHWMSPAEYMECYGLLDERLQVAHCVYFDRKDVRLLHRHNVKVASQVVSNAYLGSGVAPVPEMVERGMAVGIGTDDGNCNDSVNMIGDMKFMAHIHRAVHRDADVLTPEKILEMATIDGARSLGMDHEIGSIETGKRADLILLDLRHPQTTPHHHLAATIVFQAYGNEVDTVLIDGNVVMENRRLSFLPPERELAFLEEAQSRATAILQRANMVANPAWRSL", "Root injury [%]": 80},
      {"molecule": "L92V: mutated TriA (SEQ ID NO: 2) in which position 92 is Val (protein, Pseudomonas) MQTLSIQHGTLVTMDQYRRVLGDSWVHVQDGRIVALGVHAESVPPPADRVIDARGKVVLPGFINAHTHVNQILLRGGPSHGRQLYDWLFNVVYPGQKAMRPEDVAVAVRLYCAEAVRSGITTINDNADSAIYPGNIEAAMAVYGEVGVRVVYARMFFDRMDGRIQGYVDALKARSPQVELCSIMEETAVAKDRITALSDQYHGTAGGRISVWPAPAITPAVTVEGMRWAQAFARDRAVMWTLHMAESDHDERLHWMSPAEYMECYGLLDERLQVAHCVYFDRKDVRLLHRHNVKVASQVVSNAYLGSGVAPVPEMVERGMAVGIGTDDGNCNDSVNMIGDMKFMAHIHRAVHRDADVLTPEKILEMATIDGARSLGMDHEIGSIETGKRADLILLDLRHPQTTPHHHLAATIVFQAYGNEVDTVLIDGNVVMENRRLSFLPPERELAFLEEAQSRATAILQRANMVANPAWRSL", "Root injury [%]": 50},
      {"molecule": "N70A: mutated TriA (SEQ ID NO: 2) in which position 70 is Ala (protein, Pseudomonas) MQTLSIQHGTLVTMDQYRRVLGDSWVHVQDGRIVALGVHAESVPPPADRVIDARGKVVLPGFINAHTHVAQILLRGGPSHGRQLYDWLFNVLYPGQKAMRPEDVAVAVRLYCAEAVRSGITTINDNADSAIYPGNIEAAMAVYGEVGVRVVYARMFFDRMDGRIQGYVDALKARSPQVELCSIMEETAVAKDRITALSDQYHGTAGGRISVWPAPAITPAVTVEGMRWAQAFARDRAVMWTLHMAESDHDERLHWMSPAEYMECYGLLDERLQVAHCVYFDRKDVRLLHRHNVKVASQVVSNAYLGSGVAPVPEMVERGMAVGIGTDDGNCNDSVNMIGDMKFMAHIHRAVHRDADVLTPEKILEMATIDGARSLGMDHEIGSIETGKRADLILLDLRHPQTTPHHHLAATIVFQAYGNEVDTVLIDGNVVMENRRLSFLPPERELAFLEEAQSRATAILQRANMVANPAWRSL", "Root injury [%]": 0},
      {"molecule": "M155V: mutated TriA (SEQ ID NO: 2) in which position 155 is Val (protein, Pseudomonas) MQTLSIQHGTLVTMDQYRRVLGDSWVHVQDGRIVALGVHAESVPPPADRVIDARGKVVLPGFINAHTHVNQILLRGGPSHGRQLYDWLFNVLYPGQKAMRPEDVAVAVRLYCAEAVRSGITTINDNADSAIYPGNIEAAMAVYGEVGVRVVYARVFFDRMDGRIQGYVDALKARSPQVELCSIMEETAVAKDRITALSDQYHGTAGGRISVWPAPAITPAVTVEGMRWAQAFARDRAVMWTLHMAESDHDERLHWMSPAEYMECYGLLDERLQVAHCVYFDRKDVRLLHRHNVKVASQVVSNAYLGSGVAPVPEMVERGMAVGIGTDDGNCNDSVNMIGDMKFMAHIHRAVHRDADVLTPEKILEMATIDGARSLGMDHEIGSIETGKRADLILLDLRHPQTTPHHHLAATIVFQAYGNEVDTVLIDGNVVMENRRLSFLPPERELAFLEEAQSRATAILQRANMVANPAWRSL", "Root injury [%]": 10},
      {"molecule": "D128I: mutated TriA (SEQ ID NO: 2) in which position 128 is Ile (protein, Pseudomonas) MQTLSIQHGTLVTMDQYRRVLGDSWVHVQDGRIVALGVHAESVPPPADRVIDARGKVVLPGFINAHTHVNQILLRGGPSHGRQLYDWLFNVLYPGQKAMRPEDVAVAVRLYCAEAVRSGITTINDNAISAIYPGNIEAAMAVYGEVGVRVVYARMFFDRMDGRIQGYVDALKARSPQVELCSIMEETAVAKDRITALSDQYHGTAGGRISVWPAPAITPAVTVEGMRWAQAFARDRAVMWTLHMAESDHDERLHWMSPAEYMECYGLLDERLQVAHCVYFDRKDVRLLHRHNVKVASQVVSNAYLGSGVAPVPEMVERGMAVGIGTDDGNCNDSVNMIGDMKFMAHIHRAVHRDADVLTPEKILEMATIDGARSLGMDHEIGSIETGKRADLILLDLRHPQTTPHHHLAATIVFQAYGNEVDTVLIDGNVVMENRRLSFLPPERELAFLEEAQSRATAILQRANMVANPAWRSL", "Root injury [%]": 0}
    ]}
  ]
}
